Test results as given in patent US20190049463A1 (VIB VZW, published 2019).

Key:
[1] = biological target: β2AR truncated after amino acid 365 (β2AR-365), native (human) (UniProt P07550); assay: cell-based or functional assay
[2] = biological target: T1, β2AR truncated after amino acid 365 (β2AR-365), native (human, UniProt P07550 1-365); assay: cell-based or functional assay
[3] = biological target: β2AR-T4L fusion protein (third intracellular loop replaced by T4 lysozyme, truncated at position 365) (human) (UniProt P07550); assay: cell-based or functional assay
[4] = biological target: T1, β2AR truncated after amino acid 365 …; assay: listed as β2AR-specific; phage selection and ELISA on reconstituted β2AR-365
Protocol: In a first screen we compared the binding of the nanobodies on the native and heat denatured β₂AR antigen in an ELISA. […] Next, this plate was incubated at 80° C. for two hours.
A single llama received six weekly administrations of the reconstituted truncated β₂AR. Lymphocytes were isolated from the blood of the immunized llama and total RNA was prepared from these cells. […] Antigen-bound phages were recovered from antigen-coated wells either with thriethylamine pH11 and neutralized with Tris-HCl pH7 or by the addition of freshly grown TG1 E. coli cells. After two rounds of bio-panning, 96 individual colonies were randomly picked and the nanobodies produced as a soluble HIS-tagged protein in the periplasm of the TG1 cells.

| binding result [4] | Molecule | further results |
| --- | --- | --- |
| – | Gs heterotrimer | Ki of (-)-isoproterenol, high affinity state, β2AR/HDL reconstituted with Gs [1]: 1.07 nM; Ki of (-)-isoproterenol, low affinity state, β2AR/HDL reconstituted with Gs [1]: 95.3 nM; Ki of (-)-isoproterenol, low affinity state, β2AR/HDL reconstituted with Gs in the presence of 10 µM GTPγS [1]: 95.2 nM; fold increase of the affinity of isoproterenol for β2AR/HDL [1]: 100 fold |
| – | Nanobody 71, reference number CA2771 (VHH) VHH: QVQLQESGGGLVQPGGSLRLSCAASGFAFSSYELRWYRQAPGKQHELVAGITTGGNTYYADSVKGRFTISRDNAKNTVYLQMSNLRPEDTAVYACNANWDLLSDYWGQGTQVTVSS | Ki of (-)-isoproterenol for β2AR, [3H]-DHA competition on Sf9 membranes with 1 µM nanobody (295 without nanobody) [2]: 10.6 nM |
| – | Nanobody-80 (Nb80), reference number CA2780 (VHH, not shown: small tags and cut ends) VHH: QVQLQESGGGLVQAGGSLRLSCAASGSIFSINTMGWYRQAPGKQRELVAAIHSGGSTNYANSVKGRFTISRDNAANTVYLQMNSLKPEDTAVYYCNVKDYGAVLYEYDYWGQGTQVTVSS | Ki of (-)-isoproterenol, high affinity state, β2AR-T4L/HDL with 1 µM Nb80 (33.5 without) [3]: 0.56 nM; fold increase of the affinity of isoproterenol for β2AR-T4L/HDL [3]: 60 fold |
| binds | Nanobody CA3431 (VHH, also called NB31) VHH: QVQLQESGGGLVQPGGSLRLSCAASGSIFSINTMGWYRQAPGKQRELVAAIHSGGSTNYANSVKGRFTISRDNAANTVYLQMNSLKPEDTAVYYCNVKDYGAVLYEYDYWGQGTQVTVSS | – |
| binds | Nanobody CA2764 (VHH, also called NB64) VHH: QVQLQESGGGLVQAGGSLRLSCAASGSIFSINTMGWYRQAPGKQRELVAAIHSGGSTNYADSVKGRFTISRDNAKNTVYLQMNSLKPEDTAVYYCNVKDYGAVLYEYDYWGQGTQVTVSS | – |
| binds | Nanobody CA3413 (VHH, also called NB13) VHH: QVQLQESGGGLVQAGGSLRLSCAASGSIFSINTMGWYRQAPGKRRELVAAIHSGGSTNYANSVKGRFTISRDNAANTVYLQMNSLKPEDTAVYYCNVKDYGAVLYEYDYWGQGTQVTVSS | – |
| – | Nanobody 65, reference number CA2765 (VHH) VHH: QVQLQESGGGLVQAGGSLRLSCAASGSIFSINTMGWYRQAPGKQRELVAAIHSGGSTNYADSVRGRFTISRDNAKNTVYLQMNSLKPEDTAVYYCNVKDYGAVLYEYDYWGQGTQVTVSS | Ki of (-)-isoproterenol for β2AR, [3H]-DHA competition on Sf9 membranes with 1 µM nanobody (295 without nanobody) [2]: 13.8 nM |
| binds | Nanobody CA2784 (VHH, also called NB84 (short notation shared with CA3484)) VHH: QVQLQESGGGLVQAGGSLRLSCAASGSIFSINAMGWYRQAPGKQRELVAAITSGGSTTYADSVKGRFTVSRDNAKNTVYLQMIRLKPEDTAVYYCHVRDIYSDFLGQYEYDYWGQGTQVTVSS | – |
| binds | Nanobody CA3424 (VHH, also called NB24) VHH: QVQLQESGGGLVQAGGSLRLSCAASGSVFSLPTAGWYRQAPGKQRELVALITGSGSTHYADSVKGRFAISREYSKKTMDLQMNSLHREDTAVYFCYYRSTFTEYWGQGTQVTVSS | – |
| binds | Nanobody CA3477 (VHH, also called NB77) VHH: QVQLQESGGGLVQAGGSLRLSCAASGSIFSLNDMGWYRQAPGKQRELVAAITSGGSTNYADSVKGRFTISRDNAKNTVYLQMNSLKPEDTAVYYCNAKVAGTFSIYDYWGQGTQVTVSS | – |
| binds | Nanobody CA3472 (VHH, also called NB72 (short notation shared with CA2772)) VHH: QVQLQESGGGLVQPGGSLRLSCAASGSIFSLNDMGWYRQAPGKQRELVAAISSGGRLNYADSVKGRFTISRDNAKNTVYLQMNSLKPEDTAVYYCNAVVAGTFSTYDYWGQGTQVTVSS | – |
| binds | Nanobody CA3475 (VHH, also called NB75) VHH: QVQLQESGGGLVQAGGPLRLSCAASGSIFSLNDMGWYRQAPGKQRELVAAITSGGSTNYADSVKGRFTISRDNAKNTVYLQMNSLKPEDTAVYYCNAVVAGTFSTYDYWGQGTQVTVSS | – |
| binds | Nanobody CA3420 (VHH, also called NB20) VHH: QVQLQESGGGLVQAGGSLRLSCAASGSIFSLNDMGWYRQAPGKQRDLVAAITSGGSTKYADSVKGRFTVSRDNAKNTVYLQMNSLKPEDTAVYYCNAKVAGTFSIYDYWGQGTQVTVSS | – |
| binds | Nanobody CA3484 (VHH, also called NB84 (short notation shared with CA2784)) VHH: QVQLQESGGGLVQAGGSLRLSCAASGSIFSLNDMGWYRQAPGKLRELVAAITSGGSTKYADPVKGRFTISRDNAKNTVYLQMNSLKAEDTAVYYCNAKVAGTFSIYDYWGQGTQVTVSS | – |
| binds | Nanobody CA3433 (VHH, also called NB33) VHH: QVQLQESGGGLVQAGGSLRLSCAASGSIFSLNDMGWYRQAPGKLRELVAAVTSGGSTNYADSVKGRFTISRDNAKNTVYLQMNSLKPEDTAVYYCNAKVAGTFSIYDYWGQGTQVTVSS | – |
| – | Nanobody 67, reference number CA2767 (VHH) VHH: QVQLQESGGGLVQAGGSLRLSCAASGTISSFIAMGWYRQSPGKQRELVAGITSGGETNYEDSVKGRFTISRDNAKNTLYLQMNTLKPEDTAVYYCNAQVFADIFNLINYWGQGTQVTVSS | Ki of (-)-isoproterenol for β2AR, [3H]-DHA competition on Sf9 membranes with 1 µM nanobody (295 without nanobody) [2]: 19.4 nM |
| binds | Nanobody CA3422 (VHH, also called NB22) VHH: QVQLQESGGGLVQAGGSLRLSCAASGSIFSINAMGWYRQAPGKQRELVAASTSGDITNYADSVKGRFTISRDNAKNTVYLQMNSLEPEDTGVYYCNARGIYSDYAFADFNSWGQGTQVTVSS | – |
